Laboratory results reported in patent US8840891 (RSR, dated 2014).

Key:
[1] = biological target: human TSHR with activating mutation A623I, on CHO cells (human) (UniProt P16473); test: cell-based or functional assay
[2] = biological target: human TSHR, wild type, expressed on CHO cells (human) (UniProt P16473); test: cell-based or functional assay

B1: 5C9 IgG (human monoclonal autoantibody to the TSHR) (antibody, from another filing, V domains shown)
VH: EVQLVESGGGLIQPGGSLRLSCAASGFTVSSNYMSWVRQAPGKGLEWVSVTYSGGSTSYADSVKGRFTISRDNSKNTLYLQMNSLRAEDTAVYYCARGGRYCSSISCYARSGCDYWGQGTLVTVSS
VL: AIQMTQSPSSLSASVGDRVTITCRASQSISNYLNWYQQKPGKAPKLLIYAASSLQSGVPSRFSGSGSGTDFTLTISSLQPEDFATYYCQQSYSSPSTTFGQGTKLEIK
[1]
  basal cyclic AMP (buffer only 36.89); 5C9 IgG 0.001 µg/mL: 26.5 pmol/mL
  basal cyclic AMP (buffer only 36.89); 5C9 IgG 0.01 µg/mL: 27 pmol/mL
  basal cyclic AMP (buffer only 36.89); 5C9 IgG 0.1 µg/mL: 19.8 pmol/mL
  basal cyclic AMP (buffer only 36.89); 5C9 IgG 1 µg/mL: 16.4 pmol/mL
[2]
  % inhibition of basal cyclic AMP production; Exp 2; 5C9 IgG 0.001 µg/mL: 10.8%
  % inhibition of basal cyclic AMP production; Exp 2; 5C9 IgG 0.01 µg/mL: 37.2%
  % inhibition of basal cyclic AMP production; Exp 2; 5C9 IgG 0.1 µg/mL: 45.7%
  % inhibition of basal cyclic AMP production; Exp 2; 5C9 IgG 1 µg/mL: 71%
  % inhibition of basal cyclic AMP production; Exp 2; 5C9 IgG 10 µg/mL: 74.6%
  % inhibition of basal cyclic AMP production; Exp 2; 5C9 IgG 100 µg/mL: 54.9%
  % inhibition of basal cyclic AMP production; Exp 3; 5C9 IgG 0.1 µg/mL: 1%
  % inhibition of basal cyclic AMP production; Exp 3; 5C9 IgG 1 µg/mL: 61%
  % inhibition of basal cyclic AMP production; Exp 3; 5C9 IgG 10 µg/mL: 59%
  % inhibition of basal cyclic AMP production; Exp 3; 5C9 IgG 100 µg/mL: 56%
  cyclic AMP; Exp 1; 5C9 1 µg/mL + TSH 3 ng/mL: 13.9 pmol/mL
  cyclic AMP; Exp 1; 5C9 10 µg/mL + TSH 3 ng/mL: 3.7 pmol/mL
  cyclic AMP; Exp 1; 5C9 10 µg/mL only: 0.45 pmol/mL
  cyclic AMP; Exp 1; native human TSH 100 ng/mL + 5C9 IgG 0.001 µg/mL: 36 pmol/mL
  cyclic AMP; Exp 1; native human TSH 100 ng/mL + 5C9 IgG 0.01 µg/mL: 18 pmol/mL
  cyclic AMP; Exp 1; native human TSH 100 ng/mL + 5C9 IgG 0.1 µg/mL: 0.2 pmol/mL
  cyclic AMP; Exp 1; native human TSH 100 ng/mL + 5C9 IgG 1.0 µg/mL: 0.14 pmol/mL
  cyclic AMP; Exp 1; native human TSH 100 ng/mL + 5C9 IgG 10 µg/mL: 0.11 pmol/mL
  cyclic AMP; Exp 1; native human TSH 100 ng/mL + 5C9 IgG 100 µg/mL: 0.16 pmol/mL
  cyclic AMP; Exp 1; recombinant human TSH 100 ng/mL + 5C9 IgG 0.001 µg/mL: 13.6 pmol/mL
  cyclic AMP; Exp 1; recombinant human TSH 100 ng/mL + 5C9 IgG 0.01 µg/mL: 8.13 pmol/mL
  cyclic AMP; Exp 1; recombinant human TSH 100 ng/mL + 5C9 IgG 0.1 µg/mL: 0.12 pmol/mL
  cyclic AMP; Exp 1; recombinant human TSH 100 ng/mL + 5C9 IgG 1.0 µg/mL: 0.1 pmol/mL
  cyclic AMP; Exp 1; recombinant human TSH 100 ng/mL + 5C9 IgG 10 µg/mL: 0.12 pmol/mL
  cyclic AMP; Exp 1; recombinant human TSH 100 ng/mL + 5C9 IgG 100 µg/mL: 0.19 pmol/mL
  cyclic AMP; Exp 2; 5C9 1 µg/mL + TSH 3 ng/mL: 6.1 pmol/mL
  cyclic AMP; Exp 2; 5C9 10 µg/mL + TSH 3 ng/mL: 3.1 pmol/mL
  cyclic AMP; Exp 2; 5C9 10 µg/mL only: 0.4 pmol/mL
  cyclic AMP; Exp 2; native human TSH 100 ng/mL + 5C9 IgG 0.001 µg/mL: 37.6 pmol/mL
  cyclic AMP; Exp 2; native human TSH 100 ng/mL + 5C9 IgG 0.01 µg/mL: 34.4 pmol/mL
  cyclic AMP; Exp 2; native human TSH 100 ng/mL + 5C9 IgG 0.1 µg/mL: 15.8 pmol/mL
  cyclic AMP; Exp 2; native human TSH 100 ng/mL + 5C9 IgG 1.0 µg/mL: 0.13 pmol/mL
  cyclic AMP; Exp 2; native human TSH 100 ng/mL + 5C9 IgG 10 µg/mL: 0.18 pmol/mL
  cyclic AMP; Exp 2; native human TSH 100 ng/mL + 5C9 IgG 100 µg/mL: 0.21 pmol/mL
  cyclic AMP; Exp 2; native porcine TSH 0.3 ng/mL + 5C9 IgG 0.001 µg/mL: 32.7 pmol/mL
  cyclic AMP; Exp 2; native porcine TSH 0.3 ng/mL + 5C9 IgG 0.01 µg/mL: 28.2 pmol/mL
  cyclic AMP; Exp 2; native porcine TSH 0.3 ng/mL + 5C9 IgG 0.1 µg/mL: 18 pmol/mL
  cyclic AMP; Exp 2; native porcine TSH 0.3 ng/mL + 5C9 IgG 1.0 µg/mL: 2.14 pmol/mL
  cyclic AMP; Exp 2; native porcine TSH 0.3 ng/mL + 5C9 IgG 10 µg/mL: 0.2 pmol/mL
  cyclic AMP; Exp 2; native porcine TSH 0.3 ng/mL + 5C9 IgG 100 µg/mL: 0.18 pmol/mL
  cyclic AMP; Exp 2; recombinant human TSH 100 ng/mL + 5C9 IgG 0.001 µg/mL: 20 pmol/mL
  cyclic AMP; Exp 2; recombinant human TSH 100 ng/mL + 5C9 IgG 0.01 µg/mL: 20.6 pmol/mL
  cyclic AMP; Exp 2; recombinant human TSH 100 ng/mL + 5C9 IgG 0.1 µg/mL: 7.39 pmol/mL
  cyclic AMP; Exp 2; recombinant human TSH 100 ng/mL + 5C9 IgG 1.0 µg/mL: 0.07 pmol/mL
  cyclic AMP; Exp 2; recombinant human TSH 100 ng/mL + 5C9 IgG 10 µg/mL: 0.07 pmol/mL
  cyclic AMP; Exp 2; recombinant human TSH 100 ng/mL + 5C9 IgG 100 µg/mL: 0.11 pmol/mL
  cyclic AMP; Exp 3; 5C9 0.01 µg/mL + TSH 3 ng/mL: 33.9 pmol/mL
  cyclic AMP; Exp 3; 5C9 0.1 µg/mL + TSH 3 ng/mL: 18.7 pmol/mL
  cyclic AMP; Exp 3; 5C9 1 µg/mL + TSH 3 ng/mL: 5.4 pmol/mL
  cyclic AMP; Exp 3; 5C9 10 µg/mL + TSH 3 ng/mL: 1.9 pmol/mL
  cyclic AMP; Exp 3; 5C9 100 µg/mL + TSH 3 ng/mL: 1.4 pmol/mL
  cyclic AMP; Exp 3; 5C9 100 µg/mL only: 0.5 pmol/mL
  cyclic AMP; Exp 3; native human TSH 100 ng/mL + 5C9 IgG 0.001 µg/mL: 36 pmol/mL
  cyclic AMP; Exp 3; native human TSH 100 ng/mL + 5C9 IgG 0.01 µg/mL: 28.4 pmol/mL
  cyclic AMP; Exp 3; native human TSH 100 ng/mL + 5C9 IgG 0.1 µg/mL: 7.22 pmol/mL
  cyclic AMP; Exp 3; native human TSH 100 ng/mL + 5C9 IgG 1.0 µg/mL: 0.67 pmol/mL
  cyclic AMP; Exp 3; native human TSH 100 ng/mL + 5C9 IgG 10 µg/mL: 0.8 pmol/mL
  cyclic AMP; Exp 3; native human TSH 100 ng/mL + 5C9 IgG 100 µg/mL: 1.35 pmol/mL
  cyclic AMP; Exp 3; native porcine TSH 0.3 ng/mL + 5C9 IgG 0.001 µg/mL: 38.2 pmol/mL
  cyclic AMP; Exp 3; native porcine TSH 0.3 ng/mL + 5C9 IgG 0.01 µg/mL: 26.6 pmol/mL
  cyclic AMP; Exp 3; native porcine TSH 0.3 ng/mL + 5C9 IgG 0.1 µg/mL: 10.1 pmol/mL
  cyclic AMP; Exp 3; native porcine TSH 0.3 ng/mL + 5C9 IgG 1.0 µg/mL: 2.28 pmol/mL
  cyclic AMP; Exp 3; native porcine TSH 0.3 ng/mL + 5C9 IgG 10 µg/mL: 0.68 pmol/mL
  cyclic AMP; Exp 3; native porcine TSH 0.3 ng/mL + 5C9 IgG 100 µg/mL: 1.03 pmol/mL
  cyclic AMP; Exp 3; recombinant human TSH 100 ng/mL + 5C9 IgG 0.001 µg/mL: 25.6 pmol/mL
  cyclic AMP; Exp 3; recombinant human TSH 100 ng/mL + 5C9 IgG 0.01 µg/mL: 22.9 pmol/mL
  cyclic AMP; Exp 3; recombinant human TSH 100 ng/mL + 5C9 IgG 0.1 µg/mL: 1.18 pmol/mL
  cyclic AMP; Exp 3; recombinant human TSH 100 ng/mL + 5C9 IgG 1.0 µg/mL: 0.81 pmol/mL
  cyclic AMP; Exp 3; recombinant human TSH 100 ng/mL + 5C9 IgG 10 µg/mL: 0.74 pmol/mL
  cyclic AMP; Exp 3; recombinant human TSH 100 ng/mL + 5C9 IgG 100 µg/mL: 0.88 pmol/mL
  cyclic AMP; Exp 4; 5C9 0.1 µg/mL + TSH 0.3 ng/mL: 6.2 pmol/mL
  cyclic AMP; Exp 4; 5C9 1 µg/mL + TSH 0.3 ng/mL: 1.65 pmol/mL
  cyclic AMP; Exp 4; 5C9 10 µg/mL + TSH 0.3 ng/mL: 0.23 pmol/mL
  cyclic AMP; Exp 4; 5C9 100 µg/mL + TSH 0.3 ng/mL: 0.29 pmol/mL
  cyclic AMP; Exp 4; 5C9 100 µg/mL only: 0.15 pmol/mL
  cyclic AMP; Exp 5; 5C9 0.1 µg/mL + TSH 0.3 ng/mL: 12.4 pmol/mL
  cyclic AMP; Exp 5; 5C9 1 µg/mL + TSH 0.3 ng/mL: 2.57 pmol/mL
  cyclic AMP; Exp 5; 5C9 5 µg/mL + TSH 0.3 ng/mL: 1.21 pmol/mL
  cyclic AMP; Exp 5; 5C9 10 µg/mL + TSH 0.3 ng/mL: 1.17 pmol/mL
  cyclic AMP; Exp 5; 5C9 10 µg/mL only: 0.38 pmol/mL
  cyclic AMP; TSMAb 1 1 µg/mL + 5C9 IgG 100 µg/mL: 1.24 pmol/mL
  cyclic AMP; TSMAb 2 1 µg/mL + 5C9 IgG 100 µg/mL: 2.26 pmol/mL
  cyclic AMP; TSMAb 4 10 ng/mL + 5C9 IgG 100 µg/mL: 2.2 pmol/mL
  cyclic AMP; TSMAb 5 100 ng/mL + 5C9 IgG 100 µg/mL: 0.85 pmol/mL
  cyclic AMP; TSMAb 7 100 ng/mL + 5C9 IgG 100 µg/mL: 1.26 pmol/mL
